# Patent US7981423B2, “Rage fusion proteins” (Transtech Pharma, Inc., priority 2004, dated 2011)
# Tests used:
# [1] = test system: RAGE (S100b-stimulated THP-1 cells); assay: S100b/RAGE-induced production of TNF-α in THP-1 cells; assay type: cell-based; settings: 10 μg protein, FIG. 10
# Description: THP-1 myeloid cells may be cultured in RPMI-1640 media supplemented with 10% FBS and induced to secrete TNF-α via stimulation of RAGE with S100b. When such stimulation occurs in the presence of a RAGE fusion protein, induction of TNF-α, by S100b binding to RAGE may be inhibited.
# Previous work has shown that the myeloid THP-1 cells may secrete TNF-α in response to RAGE ligands. In this assay, THP-1 cells were cultured in RPMI-1640 media supplemented with 10% FBS using a protocol provided by ATCC. […] The amount of TNF-α secreted by the THP-1 cells was measured 24 hours after the addition of the proteins to the cell culture using a commercially available ELISA kit for TNF-α (R&D Systems, Minneapolis, Minn.).
# APP transgenic mice = assay: Mouse model of AD (APP transgenic mice); assay type: in vivo
# Description: Experiments were performed to evaluate whether TTP-4000 could affect amyloid formation and cognitive dysfunction in a mouse model of AD. The experiments utilized transgenic mice expressing the human Swedish mutant amyloid precursor protein (APP) under the control of the PDGF-B chain promoter. Over time, these mice generate high levels of the RAGE ligand, amyloid beta (Aβ).
# The APP mice (male) used in this experiment were designed by microinjection of the human APP gene (with the Swedish and London mutations) into mouse eggs under the control of the platelet-derived growth factor B (PDGF-B) chain gene promoter. The mice were generated on a C57BL/6 background and were developed by Molecular Therapeutics Inc. Animals were fed ad libituin and maintained by brother sister mating. The mice generated from this construct develop amyloid deposits starting at 6 months of age. Animals were aged for 6 months and then maintained for 90 days and sacrificed for amyloid quantification.
# APP transgenic mice were administered vehicle or TTP4000 every other day [qod (i.p.)] for 90 days starting at 6 months of age. At the end of the experiment, animals were sacrificed and examined for AP plaque burden in the brain (i.e., plaque number). A 6-month control APP group was used to determine the baseline of amyloid deposits. In addition, at the end of the study, the animals were subjected to behavioral (Morris water maze) analysis. The investigators were blinded to the study compounds. Samples were given to the mice at 0.25 ml/mouse/every other day.
# For histological examination, the animals were anesthetized with an intraperitoneal injection (IP) of sodium pentobarbital (50 mg/kg). The animals were transcardially perfused with 4° C., phosphate-buffered saline (PBS) followed by 4% paraformaldehyde. The brains were removed and placed in 4% paraformaldehyde over night. The brains were processed to paraffin and embedded. Ten serial 30-μm thick sections through the brain were obtained. Sections were subjected to primary antibody overnight at 4° C. (Aβ peptide antibody) in order to detect the amyloid deposits in the brain of the transgenic animals (Guo et al., J. Neurosci., 22:5900-5909 (2002)). Sections were washed in Tris-buffered saline (TBS) and secondary antibody was added and incubated for 1 hour at room temperature. After washing, the sections were incubated as instructed in the Vector ABC Elite kit (Vector Laboratories) and stained with […] (DAB). The reactions were stopped in water and cover-slipped after treatment with xylene. The amyloid area in each section was determined with a computer-assisted image analysis system, consisting of a Power Macintosh computer equipped with a Quick Capture frame grabber card, Hitachi CCD camera mounted on an Olympus microscope and camera stand. NIH Image Analysis Software, v. 1.55 was used. The images were captured and the total area of amyloid was determined over the ten sections. A single operator blinded to treatment status performed all measurements. Summing the amyloid volumes of the sections and dividing by the total number of sections was done to calculate the amyloid volume.
# For quantitative analysis, an enzyme-linked immunosorbent assay (ELISA) was used to measure the levels of human total Aβ, Aβtotal and Aβ1-42 in the brains of APP transgenic mice (Biosource International., Camarillo, Calif.). Aβtotal and Aβ1-42 were extracted from mouse brains by guanidine hydrochloride and quantified as described by the manufacturer. […]
molecule,measurement,setting,value
TTP-4000: four domain RAGE fusion protein (SEQ ID NO: 32): human RAGE amino acids 1-251 linked to CH2 and CH3 domains of human IgG (protein) MAAGTAVGAWALVLSLWGAVVGAQNITARIGEPLVLKCKGAPKKPPQRLEWKLNTGRTEAWKVLSPQGGGPWDSVARVLPNGSLFLPAVGIQDEGIFRCQAMNRNGKETKSNYRVRVYQIPGKPEIVDSASELTAGVPNKVGTCVSEGSYPAGTLSWHLDGKPLVPNEKGVSVKEQTRRHPETGLFTLQSELMVTPARGGDPRPTFSCSFSPGLPRHRALRTAPIQPRVWEPVPLEEVQLVVEPEGGAVAPPSVFLFPPKPKDTLMISRTPEVTCVVVDVSHEDPEVKFNWYVDGVEVHNAKTKPREEQYNSTYRVVSVLTVLHQDWLNGKEYKCKVSNKALPAPIEKTISKAKGQPREPQVYTLPPSRDELTKNQVSLTCLVKGFYPSDIAVEWESNGQPENNYKTTPPVLDSDGSFFLYSKLTVDKSRWQQGNVFSCSVMHEALHNHYTQKSLSLSPGK,reduction of S100b induction of TNF-α,"[1]; S100b 0.1 mg/ml FAC, 24 hours",~70%
same,effect on S100b induction of TNF-α (in words),[1]; S100b 0.1 mg/ml,at least as effective in blocking S100b induction of TNF-α as is sRAGE
same,inflammatory cytokines IL-1 and TNF-α,APP transgenic mice; data not shown,can reduce
same,Aβ plaques in the brain,"APP transgenic mice; treated for 3 months, versus vehicle and human IgG1, FIG. 14A",fewer Aβ plaques
same,cognitive dysfunction (Morris water maze),"APP transgenic mice; treated for 3 months, versus vehicle and human IgG1, FIG. 14B",less cognitive dysfunction
